According to US20050209141A1:
Each block holds one molecule with its values, some of them ahead of it.

Legend:
[1] = molecular target: angiotensin II receptor (AT1AR) transfected into human neuroblastoma SH-SY5Y cells (SH-SY5Y-AT1A cells); assay: cell-based or functional assay
[2] = molecular target: guinea pig angiotensin type 1 receptor on cardiac sympathetic nerve endings (guinea pig); assay: cell-based or functional assay
[3] = molecular target: T1, human angiotensinogen (Sigma), P01019
T1 chain: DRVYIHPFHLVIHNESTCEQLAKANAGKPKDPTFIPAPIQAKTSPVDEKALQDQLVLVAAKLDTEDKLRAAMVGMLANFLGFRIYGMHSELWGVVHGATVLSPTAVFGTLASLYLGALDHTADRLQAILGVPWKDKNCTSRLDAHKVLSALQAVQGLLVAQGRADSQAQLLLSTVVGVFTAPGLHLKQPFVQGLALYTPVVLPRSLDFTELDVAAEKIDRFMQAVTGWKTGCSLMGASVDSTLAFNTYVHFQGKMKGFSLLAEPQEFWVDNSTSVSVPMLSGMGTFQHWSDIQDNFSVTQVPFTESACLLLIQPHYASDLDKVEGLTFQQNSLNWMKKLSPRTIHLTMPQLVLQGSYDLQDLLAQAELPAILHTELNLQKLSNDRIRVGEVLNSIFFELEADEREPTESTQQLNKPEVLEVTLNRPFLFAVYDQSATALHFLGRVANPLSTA

release of [3H]MPP+ from SH-SY5Y-AT1A cells [1]: 20%
norepinephrine release from guinea-pig cardiac sympathetic nerve endings [2]: 27%
Molecule: angiotensin II (peptide)

B1: human renin of the human mast cell line HMC-1 (cells, lysate and releasate) (protein)
chain: LTLGNTTSSVILTNYMDTQYYGEIGIGTPPQTFKVVFDTGSSNVWVPSSKCSRLYTACVYHKLFDASDSSSYKHNGTELTLRYSTGTVSGFLSQDIITVGGITVTQMFGEVTEMPALPFMLAEFDGVVGMGFIEQAIGRVTPIFDNIISQGVLKEDVFSFYYNRDSENSQSLGGQIVLGGSDPQHYEGNFHYINLIKTGVWQIQMKGVSVGSSTLLCEDGCLALVDTGASYISGSTSSIEKLMEALGAKKRLFDYVVKCNEGPTLPDISFHLGGKEYTLTSADYVFQESYSSKKLCTLAIHAMDIPPPTGPTWALGATFIRKFYTEFDRRNNRIGFALAR
ANG I activity of HMC-1 releasate with 240 nM angiotensinogen, with or without BILA2157 [3]: about 70% of the ANG I activity measured in the presence of 240 nM angiotensinogen, is due to BILA2157-sensitive renin
ANG I formed (renin activity) by RIA [3]: The amount of ANG I formed increased with angiotensinogen concentration.
ANG I formed (renin activity) by RIA, with or without BILA2157 (100 nM) [3]: ˜70% of the total ANG I formed originates from renin
